According to paper PMC3580236:

Biological target: T1, Rev1 G193R (1-746) (Saccharomyces cerevisiae (expression …, UniProt P12689 1-746, G193R))
T1 sequence: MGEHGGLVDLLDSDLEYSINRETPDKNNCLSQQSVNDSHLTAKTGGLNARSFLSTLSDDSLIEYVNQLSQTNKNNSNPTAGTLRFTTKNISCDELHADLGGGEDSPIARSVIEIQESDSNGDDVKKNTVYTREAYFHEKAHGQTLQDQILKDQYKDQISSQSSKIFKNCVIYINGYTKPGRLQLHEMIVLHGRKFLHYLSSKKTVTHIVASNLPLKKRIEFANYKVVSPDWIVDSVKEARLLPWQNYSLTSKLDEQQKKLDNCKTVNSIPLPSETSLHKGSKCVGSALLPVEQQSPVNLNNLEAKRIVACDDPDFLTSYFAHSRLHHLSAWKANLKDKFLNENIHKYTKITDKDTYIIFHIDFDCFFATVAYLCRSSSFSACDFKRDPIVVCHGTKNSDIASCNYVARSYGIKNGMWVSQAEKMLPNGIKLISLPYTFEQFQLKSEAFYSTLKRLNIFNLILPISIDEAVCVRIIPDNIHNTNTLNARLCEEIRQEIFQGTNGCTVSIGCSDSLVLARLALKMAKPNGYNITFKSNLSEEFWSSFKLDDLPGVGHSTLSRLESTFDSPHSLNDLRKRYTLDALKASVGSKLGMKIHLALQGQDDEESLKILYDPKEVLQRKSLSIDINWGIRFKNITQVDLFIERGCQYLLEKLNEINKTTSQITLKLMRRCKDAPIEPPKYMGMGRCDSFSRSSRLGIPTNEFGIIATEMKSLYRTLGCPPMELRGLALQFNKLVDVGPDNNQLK
Experiment: pre-steady-state burst amplitude titration

B1: 24/45-mer primer-template (dsDNA)
DNA 1: GCCTCGCAGCCGTCCAACCAACTC
DNA 2: GGACGGCATTGGATCGACCTGGAGTTGGTTGGACGGCTGCGAGGC
B1 gave a Kd of 0.016 ± 0.005 µM.
